B1: C10orf62 (parent)
chain: RALEEVEMKLQKNFLTQRENTIAG

Variants of: B1
Assay: protein stability index of a GFP-peptide fusion (GPS, HEK-293T) (PSI 1-6); higher = more stable
Settings: c terminus: a fixed tail appended
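Further: lentivirally expressed fusions sorted by FACS into six bins by GFP to DsRed ratio, PSI derived from sequencing read proportions per bin multiplied by bin number.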

Q: With RALEEVEMKLQKNFLTQRENTMAG [I22M] as the variant, how does the protein stability index read?
A: 3.54

Q: Which protein stability index does the source give for RALEEVEMKLQKNFLTQRENTDAG [I22D] here?
A: 4.11

Q: With RALEEVEMKLQKNFLTQRENTRAG [I22R] as the variant, how does the protein stability index read?
A: 3.15

Q: For RALEEVEMKLQKNFLTQRENTFAG [I22F], which protein stability index is on record?
A: 2.68

Q: For RALEEVEMKLQKNFLTQRENTYAG [I22Y], which protein stability index is on record?
A: 3.38

Q: For RALEEVEMKLQKNFLTQRENTVAG [I22V], which protein stability index is on record?
A: 3.59

Q: Which protein stability index does the source give for RALEEVEMKLQKNFLTQRENTTAG [I22T] here?
A: 3.89

Q: With RALEEVEMKLQKNFLTQRENTCAG [I22C] as the variant, how does the protein stability index read?
A: 3.92

Q: For RALEEVEMKLQKNFLTQRENTQAG [I22Q], which protein stability index is on record?
A: 4.09

Q: With RALEEVEMKLQKNFLTQRENTNAG [I22N] as the variant, how does the protein stability index read?
A: 3.98

Q: For RALEEVEMKLQKNFLTQRENTEAG [I22E], which protein stability index is on record?
A: 4.75

Q: Which protein stability index does the source give for RALEEVEMKLQKNFLTQRENTGAG [I22G] here?
A: 4.34

Q: With RALEEVEMKLQKNFLTQRENTWAG [I22W] as the variant, how does the protein stability index read?
A: 2.38

Q: With RALEEVEMKLQKNFLTQRENTHAG [I22H] as the variant, how does the protein stability index read?
A: 3.8

Q: For RALEEVEMKLQKNFLTQRENTLAG [I22L], which protein stability index is on record?
A: 3.21

Q: With RALEEVEMKLQKNFLTQRENTPAG [I22P] as the variant, how does the protein stability index read?
A: 3.38

Q: With RALEEVEMKLQKNFLTQRENTAAG [I22A] as the variant, how does the protein stability index read?
A: 4.15

Q: For RALEEVEMKLQKNFLTQRENTSAG [I22S], which protein stability index is on record?
A: 3.88

Q: With RALEEVEMKLQKNFLTQRENTIAC [G24C] as the variant, how does the protein stability index read?
A: 3.23

Q: Which protein stability index does the source give for RALEEVEMKLQKNFLTQRENTIAA [G24A] here?
A: 3.4

Q: For RALEEVEMKLQKNFLTQRYNTIAG [E19Y], which protein stability index is on record?
A: 1.81

Q: Which protein stability index does the source give for RALEEVEMKLQKNFLTQRMNTIAG [E19M] here?
A: 2.65

Q: Which protein stability index does the source give for RALEEVEMKLQKNFLTQRKNTIAG [E19K] here?
A: 3.53

Q: Which protein stability index does the source give for RALEEVEMKLQKNFLTQRTNTIAG [E19T] here?
A: 2.92

Q: For RALEEVEMKLQKNFLTQRDNTIAG [E19D], which protein stability index is on record?
A: 3.78

Q: With RALEEVEMKLQKNFLTQRVNTIAG [E19V] as the variant, how does the protein stability index read?
A: 2.3

Q: Which protein stability index does the source give for RALEEVEMKLQKNFLTQRFNTIAG [E19F] here?
A: 1.86

Q: Which protein stability index does the source give for RALEEVEMKLQKNFLTQRNNTIAG [E19N] here?
A: 3.2

Q: Which protein stability index does the source give for RALEEVEMKLQKNFLTQRWNTIAG [E19W] here?
A: 2.05

Q: For RALEEVEMKLQKNFLTQRLNTIAG [E19L], which protein stability index is on record?
A: 2.04

Q: For RALEEVEMKLQKNFLTQRINTIAG [E19I], which protein stability index is on record?
A: 2.04

Q: For RALEEVEMKLQKNFLTQRGNTIAG [E19G], which protein stability index is on record?
A: 3.31

Q: Which protein stability index does the source give for RALEEVEMKLQKNFLTQRHNTIAG [E19H] here?
A: 3.13

Q: Which protein stability index does the source give for RALEEVEMKLQKNFLTQRQNTIAG [E19Q] here?
A: 2.84

Q: With RALEEVEMKLQKNFLTQRSNTIAG [E19S] as the variant, how does the protein stability index read?
A: 3.37

Q: With RALEEVEMKLQKNFLTQRRNTIAG [E19R] as the variant, how does the protein stability index read?
A: 3.12

Q: Which protein stability index does the source give for RALEEVEMKLQKNFLTQRPNTIAG [E19P] here?
A: 2.85

Q: With RALEEVEMKLQKNFLTQRENRIAG [T21R] as the variant, how does the protein stability index read?
A: 3.2

Q: Which protein stability index does the source give for RALEEVEMKLQKNFLTQRENVIAG [T21V] here?
A: 3.36

Q: Which protein stability index does the source give for RALEEVEMKLQKNFLTQRENNIAG [T21N] here?
A: 3.61

Q: For RALEEVEMKLQKNFLTQRENGIAG [T21G], which protein stability index is on record?
A: 3.23

Q: For RALEEVEMKLQKNFLTQRENSIAG [T21S], which protein stability index is on record?
A: 4.06

Q: With RALEEVEMKLQKNFLTQRENDIAG [T21D] as the variant, how does the protein stability index read?
A: 3.92

Q: For RALEEVEMKLQKNFLTQRENWIAG [T21W], which protein stability index is on record?
A: 2.93

Q: Which protein stability index does the source give for RALEEVEMKLQKNFLTQRENMIAG [T21M] here?
A: 3.27

Q: Which protein stability index does the source give for RALEEVEMKLQKNFLTQRENQIAG [T21Q] here?
A: 3.85

Q: Which protein stability index does the source give for RALEEVEMKLQKNFLTQRENEIAG [T21E] here?
A: 4.16

Q: For RALEEVEMKLQKNFLTQRENYIAG [T21Y], which protein stability index is on record?
A: 2.69

Q: For RALEEVEMKLQKNFLTQRENHIAG [T21H], which protein stability index is on record?
A: 3.69

Q: Which protein stability index does the source give for RALEEVEMKLQKNFLTQRENFIAG [T21F] here?
A: 2.86

Q: With RALEEVEMKLQKNFLTQRENPIAG [T21P] as the variant, how does the protein stability index read?
A: 3.7

Q: Which protein stability index does the source give for RALEEVEMKLQKNFLTQRENKIAG [T21K] here?
A: 3.51

Q: With RALEEVEMKLQKNFLTQRENIIAG [T21I] as the variant, how does the protein stability index read?
A: 3.34

Q: For RALEEVEMKLQKNFLTQRENAIAG [T21A], which protein stability index is on record?
A: 3.56

Q: With RALEEVEMKLQKNFLTQRENCIAG [T21C] as the variant, how does the protein stability index read?
A: 3.73

Q: For RALEEVEMKLQKNFLTQRENLIAG [T21L], which protein stability index is on record?
A: 3.2

Q: With RALEEVEMKLQKNFLTQREATIAG [N20A] as the variant, how does the protein stability index read?
A: 3.24

Q: With RALEEVEMKLQKNFLTQREKTIAG [N20K] as the variant, how does the protein stability index read?
A: 3.75

Q: Which protein stability index does the source give for RALEEVEMKLQKNFLTQRESTIAG [N20S] here?
A: 3.7

Q: For RALEEVEMKLQKNFLTQRELTIAG [N20L], which protein stability index is on record?
A: 2.45

Q: For RALEEVEMKLQKNFLTQREETIAG [N20E], which protein stability index is on record?
A: 4.17

Q: Which protein stability index does the source give for RALEEVEMKLQKNFLTQREHTIAG [N20H] here?
A: 2.85

Q: With RALEEVEMKLQKNFLTQREYTIAG [N20Y] as the variant, how does the protein stability index read?
A: 2.64

Q: With RALEEVEMKLQKNFLTQREGTIAG [N20G] as the variant, how does the protein stability index read?
A: 3.6

Q: With RALEEVEMKLQKNFLTQREDTIAG [N20D] as the variant, how does the protein stability index read?
A: 3.96

Q: With RALEEVEMKLQKNFLTQREMTIAG [N20M] as the variant, how does the protein stability index read?
A: 3.18

Q: With RALEEVEMKLQKNFLTQREFTIAG [N20F] as the variant, how does the protein stability index read?
A: 2.52

Q: Which protein stability index does the source give for RALEEVEMKLQKNFLTQREPTIAG [N20P] here?
A: 3.73

Q: With RALEEVEMKLQKNFLTQRETTIAG [N20T] as the variant, how does the protein stability index read?
A: 3.7

Q: Which protein stability index does the source give for RALEEVEMKLQKNFLTQREITIAG [N20I] here?
A: 2.61

Q: Which protein stability index does the source give for RALEEVEMKLQKNFLTQREWTIAG [N20W] here?
A: 2.03

Q: For RALEEVEMKLQKNFLTQREQTIAG [N20Q], which protein stability index is on record?
A: 3.81

Q: Which protein stability index does the source give for RALEEVEMKLQKNFLTQRERTIAG [N20R] here?
A: 3.29

Q: With RALEEVEMKLQKNFLTQREVTIAG [N20V] as the variant, how does the protein stability index read?
A: 3.35

Q: Which protein stability index does the source give for RALEEVEMKLQKNFLTQRECTIAG [N20C] here?
A: 3.07

Q: With RALEEVEMKLQKNFLTQRENTILG [A23L] as the variant, how does the protein stability index read?
A: 3.02

Q: Which protein stability index does the source give for RALEEVEMKLQKNFLTQRENTIDG [A23D] here?
A: 4.19

Q: Which protein stability index does the source give for RALEEVEMKLQKNFLTQRENTISG [A23S] here?
A: 3.42

Q: For RALEEVEMKLQKNFLTQRENTING [A23N], which protein stability index is on record?
A: 3.2

Q: With RALEEVEMKLQKNFLTQRENTITG [A23T] as the variant, how does the protein stability index read?
A: 3.67

Q: Which protein stability index does the source give for RALEEVEMKLQKNFLTQRENTIIG [A23I] here?
A: 3.02

Q: With RALEEVEMKLQKNFLTQRENTICG [A23C] as the variant, how does the protein stability index read?
A: 3.36

Q: Which protein stability index does the source give for RALEEVEMKLQKNFLTQRENTIYG [A23Y] here?
A: 2.91

Q: With RALEEVEMKLQKNFLTQRENTIGG [A23G] as the variant, how does the protein stability index read?
A: 3.41

Q: Which protein stability index does the source give for RALEEVEMKLQKNFLTQRENTIWG [A23W] here?
A: 2.07

Q: With RALEEVEMKLQKNFLTQRENTIRG [A23R] as the variant, how does the protein stability index read?
A: 3.51

Q: Which protein stability index does the source give for RALEEVEMKLQKNFLTQRENTIEG [A23E] here?
A: 4.28

Q: With RALEEVEMKLQKNFLTQRENTIHG [A23H] as the variant, how does the protein stability index read?
A: 3.19

Q: For RALEEVEMKLQKNFLTQRENTIMG [A23M], which protein stability index is on record?
A: 3.05

Q: Which protein stability index does the source give for RALEEVEMKLQKNFLTQRENTIPG [A23P] here?
A: 3.93

Q: For RALEEVEMKLQKNFLTQRENTIQG [A23Q], which protein stability index is on record?
A: 3.64

Q: For RALEEVEMKLQKNFLTQRENTIFG [A23F], which protein stability index is on record?
A: 2.66

Q: For RALEEVEMKLQKNFLTQRENTIVG [A23V], which protein stability index is on record?
A: 3.44

Q: With RALEEVEMKLQKNFLTQRENTIKG [A23K] as the variant, how does the protein stability index read?
A: 4.31
